Data on 18 sequences can be found in the DeepSol protein solubility set.

This series in a line: soluble on expression in E. coli; label from the status in PepcDB or PDB records.
As to “MSLASIDFRNKINWHRRYRSPQGVKTEHEILRIFESDRGRIINSPAIRRLQQKTQVFPLERNAAVRTRLTHSMEVQQVGRYIAKEILSRLKEQDRLEEYGLDALTGPFESIVEMACLMHDIGNPPFGHFGEAAINDWFRQRLHPEDAESQPLTHDRCVVSSLRLQEGEENLNDIRRKVRQDICHFEGNAQGIRLVHTLMRMNLTWAQVGGILKYTRPAWWRGPVPDSHRYLMKKPGYYLSEEKYIARLRKELQLAPYSRFPLTWIMEAADDISYCVADLEDAVEKRIFSVEQLYHHLYHAWCHHEKDSLFELVVGNAWEKSRANTLSRSTEDQFFMYLRVNTLNKLVPYAAQRFIDNLPQIFAGTFNQALLEDASGFSRLLELYKNVAVEHVFSHPDVEQLELQGYRVISGLLDIYQPLLSLSLNDFRELVEKERLKRFPIESRLFQKLSTRHRLAYVEVVSKLPTDSAEYPVLEYYYRCRLIQDYISGMTDLYAWDEYRRLMAVEQEGHHHHHH”, the “soluble on expression in E. coli” value is listed as “soluble”. As to “MSLASLRVLALACLPLFAVLHADAKTLLGKVKRATGMGVGEGPSVAKKPKYTATVPGFTPPSGDQRMNEFMAVDTSGEFMRHLYIEEGRTVCASATSRNRRPTSESPHSDDVVVVEGMLRGRPETRVHAMFDGFQGRHSAMWLAQNVMNYLNDLRDVNEEEITRQFERMDGDLRAANLPGGSSALIIFVRYEKKPTEARVVGRQIVPEGAKEFTSVAEALGGPLMPVVAMNFRRDPRAAKGIYTIHVASLGNSRCVLKSGRTAIHLSTPHTASSHKERHRVQAAGGVFTTVNGELLLGGVVPMTRAFGSFDFKKGGQGKLQQDLVSAVPDVTTFFAYPGDDEGHHHHHH”, the “soluble on expression in E. coli” value is “not soluble”. To “MSLATIVVKTTPDNEIAYWPTGKEHLFCIALGTKAQAGPLGEFVHQFRTDRPGMVQVWTQGSDSFTLYLTPGSKDTITVTKDTLIISGTNSAYNRCLKTVNDYQKYSDKLVYMQPHELRGITSLEQYHRLADARMRQALDAVNASGLNEEFLAEQRAHIDYIRRSIFIHIARQLSRKEKLPEDWQRELTEVINSSVNGDYLRSYRGIGFFVNDLVMMQFTNLENGDLKEIKEYASFLFDRYRKFFTGDNLQYMQAQLIYEDEFQGSKTPSIPQLYETYRAEFPNSPFLNVLEPGVKENLRFQNSRITDKDYHILTCDSTITSLEDAVKPFKGKVVYIDVWATWCGPCLKEFQYLPTLKEKAHNMDVVYLYISIDRPEERKKWEKTIAYHQLKGYHLLVNEKLGKSLYTELGNERQILSIPCFVIIDKTGKIVIRHAAAPSEPEKVIEQLSTYYNKEGHHHHHH” belongs “soluble”. Next, “MSLAYTIKKVEKETKISAHTLRFWAKKGLFPFVQKDENSVKYFSKSDIEWVKWIEWLRISGMPIEQVKHYIKLCSLGIKTAKERQEMLKQTKKKLQNQIKTLKESEKVLSKKIKIYEEMLANEVDGFNPESKDYQPCDKLHKFKGEGHHHHHH”: “not soluble”; “MSLDAPYFSPRRLGHVNLIVRDTDASMRFYQDVVGFEEVYRVPAIGGGFLSNGNTHHDVGMVQSSGPSGKGRPPGLNHLAFELETEVALVEGYERSRQDGLAFERTLDHDIAHSAYCADPDGNSCELYADVVREWRTARTGEVTKPKPAWWPGKTPPNPHRNYHAEPQLRQVAHAAFHPLRTQHATLVVADLRESIAFYTRRIGLALQAQGDGYALLGGRCGRRDVALVQARGQLSPGYHHVGLEVADAGELLQAAQRWREQGGQVERLIEHPLRTAVYITDPDGLLLQFFVDHAADHAAWRHLDREQALWIVEGHHHHHH”: “not soluble”. Next, “MSLDDEPLLPDFEQLGYPRNLPTLVLGLRGMICEITHSKKNGWGIVKRPGVDKFFNILKNYYEIVIWSDESFPIPHEVLEKWNLPIIGILNKNHFSKINGKLFKNLSRLGRNLNRVILVDNESYSANIQYDNSIVLPIFKGDPYDNELNSIIDLLKAAAMQPGDIREYLKRFRCNDTNIGDEGHHHHHH”: “soluble”. Regarding “MSLDDFCNIPKGKEVVFGFNVPQSGAYADEGMDELKAYQLAVKHLNGEGDGGMLKTMKPLALKGNGVLGKKVTFVSGDTQTKADQARATAKRMIEKDGAIMITGGSSSAEAVAVQSLCQDVGVIFMAGLTHSNDTTGKDKRAYGFRHFFNAYMSGVALGPVLAEAYGKDRAAYHLTADYTWGWTQEESMKDATEKQGWKTVKAVRTPLGAADFSQYITPVLNSGADVLILNHYGKDMINSLTQAVQFGLRDKMANGKKFEIVVPLFSELMAQGAGDAIKGIYGTANWDWKLEDAATSAFTKSFGAAYGTPPSQAAQTCYVQAILYADAVERAGTFNPSKVIAALEGFEFDGLGNGKTLYRAADHQCFKDVLVVQGKEKPKDKFDLLEVKKIVPASQVTYDPSIFGGELGSKDAKAEGHHHHHH”, the “soluble on expression in E. coli” value is “soluble”. To “MSLDETPTIHILWINAGLSCDGDSVALTAAMQPSIEEIVLGVLPGLPKIAVHWPLIDFECGPVGGSDTFIEWFFKGERGEIDPFVLVVEGSIPNESIKPEGYWCGFGDNPETGQPITTSEWIDRLAPKALAVVAIGTCATYGGIHAMAGNPTGAMGVPDYLGWDWKSQAGIPIVCVPGCPIQPDNFSETLTYLLYQAAGAAPMIPLDDKLRPTWLFGATEGHHHHHH” belongs “soluble”.

Consider “MSLDIEQQFLNDLDNQLWRAADKLRSNLDAANYKHVVLGLIFLKYVSDAFEERQQELTELFQKDDDDNIYYLPREDYDSDEAYQQAIAEELEIGDYYTEKNVFWVPKTARWNKLRDVITLPTGSVIWQDEQGEDVKLRSVSWLIDNAFDDIEKANPKLKGILNRISQYQLDADKLIGLINEFSLTSFNNPEYNGEKLNLKSKDILGHVYEYFLGQFALAEGKQGGQYYTPKSIVTLIVEMLEPYKGRVYDPAMGSGGFFVSSDKFIEKHANVKHYNASEQKKQISVYGQESNPTTWKLAAMNMVIRGIDFNFGKKNADSFLDDQHPDLRADFVMTNPPFNMKDWWHEKLADDPRWTINTNGEKRILTPPTGNANFAWMLHMLYHLAPTGSMALLLANGSMSSNTNNEGEIRKTLVEQDLVECMVALPGQLFTNTQIPACIWFLTKDKNAKNGKRDRRGQVLFIDARKLGYMKDRVLRDFKDEDIQKLADTFHNWQQEWSEENNQAGFCFSADLALIRKNDFVLTPGRYVGAEAEEDEGHHHHHH”, for which the “soluble on expression in E. coli” value is recorded as “soluble”. With “MSLDKEYRITLLHNVAHYGHAEATRILLAAGARVNAVNGEGNTPLFAAVHEGHDDVARILLDAGADVTIANSYWYTPLREACRRGNTGMVRLLLEKGADVNITDNKGFTPLHAAVSAEALEAATLILDSGADINIAGRYGDTPLHYAVGLGYEEFVRLFLARGADPTIRNDRGLTPRQLAEERGFASIVELFRNWGKNTEGHHHHHH”, the “soluble on expression in E. coli” value is “soluble”. Next, “MSLDKFQLKGKVALVTGCKRGIGKAMAIGLAEAGADIIGVSASLELEGSSVEQAIRATGRNFKAYQCDFSDRKSLYNFINSVKADYSRIDILVNNAGTILRTPAAEHPDEMWDKVIEVNQNAQFILTRELGKEMVSRGEGKVIFTASLLTFQGGITVPGYAASKGAIGQMTMAFANEWASKGVNVNAIAPGYISTDNTEALRNDPDRSASILSRIPAGRWGEAEDFAGPVVFLASEAAAYMHGSIMLVDGGWMGREGHHHHHH”: “soluble”; “MSLDLAADILVADAHMHTNPTRGLGAREVARRFRREGGWFAALLTLTTWSYGLAPTGVEAYRRMYEIHLRECRAAREEGLRVACFAGIHPAEVDRMIDKHRQPPEKALETALEAVEVLRRLCREGAIDGVGEVGRQHYRTSPLRVAIAEVVLEEAAAAALEEGCLLQLHLENEGPATVETVDRILRRAGATGARRGMVIFHHATLRVAKEAVARGYNATIPGVPKLLEHAAANEPPDYMVESDYLDDPARPGAVVEPWKMAQKLREIASRTPETREWVRRTNIDLVERVFQASPPEGHHHHHH”: “soluble”. Regarding “MSLDNFLTTGFLDIIPLSQPLEFRREGLQHGVLDKLRSGKYPQQASLNLLRQPVEECRKMMFSFIQQAMADGLRNVLIIHGKGREDKSHANIVRSYVARWLTEFDDVQAYCTALPHHGGSGACYVALRKTAQAKQENWERHAKRSREGHHHHHH”, the “soluble on expression in E. coli” value is reported as “not soluble”. To “MSLDPRKVNELRAFVKMCKQDPSVLHTEEMRFLREWVESMGGKVPPATQKAKSEENTKEEKPDSKKVEEDLKADEPSSEESDLEIDKEGVIEPDTDAPQEMGDENAEITEEMMDQANDKKVAAIEALNDGELQKAIDLFTDAIKLNPRLAILYAKRASVFVKLQKPNAAIRDCDRAIEINPDSAQPYKWRGKAHRLLGHWEEAAHDLALACKLDYDEDASAMLKEVQPRAQKIAEHRRKYERKREEREIKERIERVKKAREEHERAQREEEARRQSGAQYGSFPGGFPGGMPGNFPGGMPGMGGGMPGMAGMPGLNEILSDPEVLAAMQDPEVMVAFQDVAQNPANMSKYQSNPKVMNLISKLSAKFGGQAEGHHHHHH” belongs “soluble”. Next, “MSLDRLKQSLLDAPIIEKDGYHYFVHPISDGVPMLEPELLREIVIRIIRKAELDEVDKIVTPAAMGIHISTAVSLMTDIPIVVIRKREYGLPGEVALSQETGYSENEMYINDVHEGDRVLVLDDVLSTGGTLRAITDALEQTGADVADVLAVIKKAGPNELDDTDMDVRTLINVDEGHHHHHH”: “soluble”. Next, “MSLDSGTLGTPPPEQGPTPPTTLPDVPAPVIPSASVTSAASDFLAALHPPVTVPDPAPPPPPAPAAGNPPDTVTGDSVLQRILRGPTGPGTTSLAPAVRYGRQPGPEAPASAPPAAGRAVPGLYHHPVPEPDPVRVEEVSRRIKRWAEDEVQLYPEEWEGQFDGFSVGRYMVGCHPDAPTVDHLMLATRLMVAENAVDDCYCEDHGGSPVGLGGRLLLAHTAIDHFHSTAEYTPTWQASLAADAPRRAYDSAMGYFVRAATPSQSDRYRHDMARLHLGYLAEGAWAQTGHVPEVWEYLAMRQFNNFRPCPTITDTVGGYELPADLHARPDMQRVIALAGNATTIVNDLYSYTKELNSPGRHLNLPVVIAEREQLCERDAYLKAVEVHNELQHSFEAAAADLAEACPLPPVLRFLRGVAAWVDGNHDWHRTNTYRYSLPDFWEGHHHHHH”: “soluble”; “MSLDVGGSERIPSEMRAWEVTSPAPIDSSPSPIHFVKHPVPVPKTSEVLVRVISCGICHTDLHVAEGDLPVHHPHVIPGHEIIGRVVANGPQAGRFNLGDRIGVPWLRWTCGVCTYCRSGKENLCPNSLYTGWDHDGGYAEYVTVPEGFAYRIPSAFNSVTAAPLLCAGIIGYHAFRRANVPAGGRLGLYGFGGSAHLAAQIAIAQGIEVHVFTRGKDAQRFALELGAASAQGVYDPSPVSLDSSILFAPVGDIVPKALENLAAGGTLALAGIHLTDVPSLNYQNHLFHEKVLTSVESNTRRDGEEFLTLADRLKIHPKTTEYPFEKADEALRHLSHGDMQGACVLRISEGHHHHHH”: “not soluble”. On to “MSLDWDSVHVPGPHAMTIQELVDYVNARQKQGIYEEYEDIRRENPVGTFHCSMSPGNLEKNRYGDVPCLDQTRVKLTKRSGHTQTDYINASFMDGYKQKNAYIGTQGPLENTYRDFWLMVWEQKVLVIVMTTRFEEGGRRKCGQYWPLEKDSRIRFGFLTVTNLGVENMNHYKKTTLEIHNTEERQKRQVTHFQFLSWPDYGVPSSAASLIDFLRVVRNQQSLAVSNMGARSKGQCPEPPIVVHCSAGIGRTGTFCSLDICLAQLEELGTLNVFQTVSRMRTQRAFSIQTPEQYYFCYKAILEFAEKEGMVSSGQNLLAVESQEGHHHHHH”, for which the “soluble on expression in E. coli” value is “soluble”.
